Results: patent US7320785B2, “Compositions and methods for modulation of DARPP-32 phosphorylation” (The Rockefeller University, priority 2001, dated 2008)

What was measured:
Assay type in all cases: biochemical, rat
[1] = pNPP hydrolysis by recombinant PP2C isoforms (phosphatase assay); settings: for Vmax / kcat / Km: pNPP as substrate; for Km: 37° C.
Experimental: The activity of PP2C isoforms using pNPP as substrate was assayed as previously described (Brumel et al., 1997). […] The reaction was stopped by addition of 1 ml of 0.1 M NaOH, and the initial rate of p-nitrophenol release was determined spectrophotometrically at 405 nm (using a molar extinction coefficient of 18 000 M−1 cm−1).
(§1) Kinetic parameters (Km and Vmax) were determined from Lineweaver-Burk plots.
Legend Table 7. Enzymatic activities of PP2C isoforms assayed using pNPP as substrate. Phosphatase activity was measured using pNPP as substrate by the change in absorbance at 405 nm. Km and Vmax values were calculated from Lineweaver-Burk plots of the data.

phospho-Ser137-DARPP-32 [2] = experiment: Dephosphorylation of phospho-Ser137-DARPP-32 by recombinant PP2C isoforms; settings: [^32P]phospho-Ser137 DARPP-32 as substrate; in the presence of 10 mM Mn^2+
Experimental: The activity of PP2C isoforms using ^32P-DARPP (phosphorylated at Ser137) was assayed at 37° C. in a reaction mixture containing 25 mM Tris-HCl, pH 7.5, 10 mM MnCl2, 1% BSA, and […] substrate, in a total volume of […]. Reactions were stopped by addition of […] of 50% trichloroacetic acid. Samples were then incubated on ice for 30 min and centrifuged at 10,000 g for 10 min at 4° C. Radioactivity recovered in the supernatant was measured by Cerenkov counting in a scintillation counter (Beckman).
as §1
Legend Table 8. Enzymatic activities of PP2C isoforms assayed using [^32P]phospho-Ser137 DARPP-32 as substrate. Phosphatase activity was measured by the release of ^32P, and Km and Vmax values were calculated from Lineweaver-Burk plots of the data.

phospho-Ser137-DARPP-32 [3] = experiment: as above; settings: phospho-Ser137-DARPP-32 as substrate; Mn^2+ or Mg^2+

B1: PP2Ca: recombinant his-tagged alpha isoform of protein phosphatase 2C cloned from rat striatum (protein)
chain: MGAFLDKPKMEKHNAQGQGNGLRYGLSSMQGWRVEMEDAHTAVIGLPSGLETWSFFAVYDGHAGSQVAKYCCEHLLDHITNNQDFKGSAGAPSVENVKNGIRTGFLEIDEHMRVMSEKKHGADRSGSTAVGVLISPQHTYFINCGDSRGLLCRNRKVHFFTQDHKPSNPLEKERIQNAGGSVMIQRVNGSLAVSRALGDFDYKCVHGKGPTEQLVSPEPEVHDIERSEEDDQFIILACDGIWDVMGNEELCDFVRSRLEVTDDLEKVCNEVVDTCLYKGSRDNMSVILICFPNAPKVSAEAVKKEAELDKYLENRVEEIIKKQGEGVPDLVHVMRTLASENIPSLPPGGELASKRNVIEAVYNRLNPYKNDDTDSASTDDMW
modifications: left off: small tags and cut ends
notes: recombinant his-tagged alpha isoform of protein phosphatase 2C cloned from rat striatum
For B1, the “Vmax of pNPP hydrolysis, Mn^2+ compared to Mg^2+ (higher)” value ([1]; 20 mM Mn^2+ versus 20 mM Mg^2+) was “approximately 50 fold”, the Vmax ([1]; in the presence of 20 mM Mg^2+) was 0.20 µmol/mg/min and the kcat ([1]; in the presence of 20 mM Mg^2+) was 0.16 s⁻¹. For the same molecule, the Km ([1]; in the presence of 20 mM Mg^2+) was 3100 µM, the Vmax ([1]; in the presence of 20 mM Mn^2+) was 7.49 µmol/mg/min and the kcat ([1]; in the presence of 20 mM Mn^2+) was 5.83 s⁻¹. For the same molecule, the Km ([1]; in the presence of 20 mM Mn^2+) was 1530 µM, the Km (phospho-Ser137-DARPP-32 [2]) was 13.1 µM and the Vmax (phospho-Ser137-DARPP-32 [2]) was 0.39 µmol/mg/min. The kcat (phospho-Ser137-DARPP-32 [2]) was 0.31 s⁻¹ and the “divalent cation concentration for maximal activity” value (phospho-Ser137-DARPP-32 [3]) was 4 to 5 mM.
